Source: patent publication US20090291083A1, “BARB4 TARGET, ANTIBODY DESIGNATED BARB4, BARB4 RELATED ANTIBODIES, AND METHODS OF MAKING AND USING SAME” (PATRYS LIMITED, priority 2008, published 2009)

Tests used:
Assay in all cases: MTT cell proliferation assay (Table 3)
Assay type in all cases: cell-based, human
BxPC-3 = system: BxPC-3
Protocol: (§1) BARB4 was also evaluated for inhibition of proliferation of other cancer cell lines, including BxPC-3, COLO 205, H460, MDA-MB-231 and MIAPaCa-2 cells, as well as HT-29, HCT-116, BxPC-3, PANC-1, A549, PC-3 and HCT116 cells. In brief, various human cancer cell lines obtained from the American Type Culture Collection (ATCC) were established using standard in vitro culture methods and ATCC recommended media in 175 cm2 BD tissue culture treated flasks. In particular, MDAMB-231 cultures were incubated in a humidified 37° C., 100% air incubator, and BxPC-3, COLO 205, H460 and MIAPaCa-2 cultures were incubated in a humidified 37° C., 5% CO2, 95% air incubator. Cultures were sub-cultivated regularly to maintain log phase growth. All cell lines were brought up from cryopreservation using the original recommended ATCC media type and supplements. Cell line specific seeding densities were based on historical data from MIR Preclinical Services for growth over a 72 hr period.
(§2) The anti-proliferative activity of BARB4 and cisplatin was evaluated using the MTT cell proliferation assay (ATCC catalog #30-1010K). The assay is based on the reduction of yellow tetrazolium MTT (3-(4,5-dimethylthiazolyl-2)-2,5-diphenyltetrazolium bromide) by metabolically active cells forming purple formazan crystals. The purple formazan is solubilzed with detergent and quantified spectrophotometrically at 570 nm (MTT Cell Proliferation Assay, ATCC 30-1010K; Van de Loosdrecht, et al. J. Immunol. Methods 174:311 (1994): Ferrari, et al. J. Immunol. Methods 131:165 (1990); Gerlier, D., and N. Thomasset. J. Immunol. Methods 94:57 (1986); Alley, et al. Cancer Res. 48:589 (1988); and Mosmann, T. J. Immunol. Methods 65:55 (1983)). The MTT Cell Proliferation Assay Kit from ATCC contains ready to use MTT and detergent solutions.
(§3) Cells in the log phase of growth were seeded into 96-well culture plates in 0.1 mL of complete medium in all wells except column 12 which was reserved for media-only control (blank) and allowed to attach overnight at 37° C. Compounds were diluted in complete culture media and added to each well in a volume of […] for a final 1:2 dilution from the 2× dilution reservoir concentration. At 24 and 48 hr post-treatment, 100 μl of media was removed and 0.01 mL of MTT reagent was added to each well. The plates were returned to the incubator for four hours. Detergent reagent (0.1 mL) was then added and the plates incubated overnight at 37° C. in the dark to solubilize the formazan crystals. The absorbance at 570 nm was measured with a SpectraMAX® Plus plate reader (Molecular Devices Corporation) at 24 and 48 hr post-detergent addition. Absorbance values were converted to percent of control and then plotted against test agent concentrations for IC50 calculations using SoftMax® Pro v. 5.2 (Molecular Devices Corporation). Plots of percent of control vs. compound (BARB4 or cisplatin) concentration were analyzed using the 4 parameter equation to obtain IC50 values and other parameters that describe the sigmoidal curve along with an R2 value.
(§4) Using the same MTT assay as described for the BxPC-3, COLO 205, H460, MDA-MB-231 and MIAPaCa-2 cells, proliferation of HT-29, HCT-116, BxPC-3, PANC-1, A549, PC-3 and HCT116 cells was evaluated and IC50 (μg/ml) was calculated at 24, 48 and 72 hours. The cell culture protocol for passaging adherent cells used is substantially as described above for the BxPC-3, COLO 205, H460, MDA-MB-231, and MIAPaCa-2 cells. The following were the cell line propagation conditions:
(§5) Atmosphere. 5% CO2, humidified Media Supplements Used: * FBS—Fetal Bovine Serum (Gibco 10082-147; lot #1354986), * PSG—Penicillin, Streptomycin, L-Glutamine Solution (CellGro 30-009-CI), * 0.1M Na Pyruvate (CellGro 25-000-CI), * 1.0M HEPES (CellGro 25-060-CI), AND * 45% Glucose (CellGro 25-037-CI). Seeding Densities* for IC50 Assays: A549 2.5×10^3; PC-3 6.0×10^3; HT-29 12×10^3; HCT-116 8.0×10^3; BxPC-3 12×10^3; and PANC-1 6.0×10^3 cells.

HCT-116 = system: HCT-116
Protocol: as §1, §2, §3, §4, §5

HT-29 = system: HT-29
Protocol: as §1, §2, §3, §4, §5

PANC-1 = system: PANC-1
Protocol: as §1, §2, §3, §4, §5

A549 = system: A549
Protocol: as §1, §2, §3, §4, §5

PC-3 = system: PC-3
Protocol: as §1, §2, §3, §4, §5

B1: BARB4: human IgG antibody produced by hybridoma DSMZ Deposit No. DSM ACC2876; heavy chain SEQ ID NOs:1, 3, 5, 7, light chain SEQ ID NO:9 (antibody, V domains shown)
VH: QVQLVESGGGVVQPGRSLRLSCAASGFRFTTHGMHWVRQAPGKGLEWVAVISYNGRNKYYADYVNGRFTISRDDSRDTVFLQMNSLRPEDTAMYYCAKVRGDGYGDYGYFDYWGHGTLVSVSS
VL: QSALTQPRSVSGSPGQSVTISCTGTYNYVSWYQQHPGKAPKLMIFDVSRRSSGVPDRFSGSKSGNTASLTISGLQAEDEADYYCCSYGGTYLYVFGTGTTVTVLGQ
BxPC-3; 24 hours
  IC50 24 hours: 88.9 µg/mL
BxPC-3; 48 hours
  IC50 48 hours: 362.8 µg/mL
BxPC-3; 72 hours
  IC50 72 hours: 511.4 µg/mL
HCT-116; 24 hours
  IC50 24 hours: 24.8 µg/mL
HCT-116; 48 hours
  IC50 48 hours: 77.3 µg/mL
HCT-116; 72 hours
  IC50 72 hours: 95.2 µg/mL
HT-29; 24 hours
  IC50 24 hours: 399.5 µg/mL
HT-29; 48 hours
  IC50 48 hours: 300.1 µg/mL
HT-29; 72 hours
  IC50 72 hours: 228.8 µg/mL
PANC-1; 24 hours
  IC50 24 hours: 91.4 µg/mL
PANC-1; 48 hours
  IC50 48 hours: 337.1 µg/mL
PANC-1; 72 hours
  IC50 72 hours: 353.2 µg/mL
A549; 24 hours
  IC50 24 hours: 98.9 µg/mL
A549; 48 hours
  IC50 48 hours: 111.2 µg/mL
A549; 72 hours
  IC50 72 hours: 122.2 µg/mL
PC-3; 24 hours
  IC50 24 hours: 57.2 µg/mL
PC-3; 48 hours
  IC50 48 hours: 64.2 µg/mL
PC-3; 72 hours
  IC50 72 hours: 155.7 µg/mL
